Laboratory results taken from paper PMC5989136.

Biological target: H4 conjugated to SUMO (UniProt P62799)
Assay: refolding of the histone complex, analysed by SDS-PAGE

Question: How did the stoichiometry N turn out when “H3K23ac (H3 with acetylation at K23) (from UniProt P84233 1-136) (natural protein)” was run?
Answer: 1 H3K23ac:H4
